Source: the supplement of paper PMC9112550, “Optimization of the antimicrobial peptide Bac7 by deep mutational scanning” (BMC Biology, 2022)

test system: Escherichia coli TOP10; experiment: shrunken log2 fold change of peptide-encoding DNA abundance (4.5 h post-induction vs induction); higher = less antimicrobial activity (less host growth inhibition); details: time post-induction: 4.5 h; library: site-saturation at positions 5, 18, 19, 20
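Also: peptides expressed intracellularly from a pBAD plasmid library in pooled LB shake-flask culture, induced with 0.3% L-arabinose, DNA abundance read by NGS, three biological replicates, DESeq2 with apeglm shrinkage.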

Sequence | shrunken log2 fold change
RRIRMRPPRLPRPRPRPMCQPRP | 0.00866
RRIRMRPPRLPRPRPRPMDDPRP | 0.15
RRIRMRPPRLPRPRPRPMDLPRP | -0.0207
RRIRMRPPRLPRPRPRPMESPRP | -0.00987
RRIRMRPPRLPRPRPRPMFHPRP | -0.244
RRIRMRPPRLPRPRPRPMFSPRP | -0.125
RRIRMRPPRLPRPRPRPMFTPRP | 0.0379
RRIRMRPPRLPRPRPRPMGNPRP | 0.451
RRIRMRPPRLPRPRPRPMHKPRP | 0.413
RRIRMRPPRLPRPRPRPMHNPRP | 0.0989
RRIRMRPPRLPRPRPRPMKDPRP | 0.251
RRIRMRPPRLPRPRPRPMLDPRP | 0.722
RRIRMRPPRLPRPRPRPMLEPRP | 0.0346
RRIRMRPPRLPRPRPRPMMEPRP | 0.00973
RRIRMRPPRLPRPRPRPMNPPRP | 0.12
RRIRMRPPRLPRPRPRPMPWPRP | 0.169
RRIRMRPPRLPRPRPRPMSAPRP | 0.333
RRIRMRPPRLPRPRPRPMSQPRP | 0.0528
RRIRMRPPRLPRPRPRPMTNPRP | 0.165
RRIRMRPPRLPRPRPRPMVCPRP | 0.204

Sequence | shrunken log2 fold change
RRIRMRPPRLPRPRPRPMVFPRP | 0.0369
RRIRMRPPRLPRPRPRPMVLPRP | -0.0251
RRIRMRPPRLPRPRPRPMVPPRP | -0.0114
RRIRMRPPRLPRPRPRPMWHPRP | 0.208
RRIRMRPPRLPRPRPRPMWYPRP | -0.288
RRIRMRPPRLPRPRPRPNCHPRP | 0.0305
RRIRMRPPRLPRPRPRPNDAPRP | 0.317
RRIRMRPPRLPRPRPRPNDLPRP | 0.0853
RRIRMRPPRLPRPRPRPNDNPRP | 0.504
RRIRMRPPRLPRPRPRPNEKPRP | 0.0356
RRIRMRPPRLPRPRPRPNELPRP | 0.0804
RRIRMRPPRLPRPRPRPNFAPRP | 0.318
RRIRMRPPRLPRPRPRPNHPPRP | -0.0733
RRIRMRPPRLPRPRPRPNHSPRP | -0.38
RRIRMRPPRLPRPRPRPNIQPRP | -0.112
RRIRMRPPRLPRPRPRPNKEPRP | 0.127
RRIRMRPPRLPRPRPRPNMDPRP | 0.0442
RRIRMRPPRLPRPRPRPNMFPRP | 0.0213
RRIRMRPPRLPRPRPRPNMWPRP | 0.0353
RRIRMRPPRLPRPRPRPNNLPRP | -0.259

Sequence | shrunken log2 fold change
RRIRMRPPRLPRPRPRPNNVPRP | -0.0591
RRIRMRPPRLPRPRPRPNPKPRP | 0.023
RRIRMRPPRLPRPRPRPNQEPRP | -0.0314
RRIRMRPPRLPRPRPRPNRGPRP | 0.218
RRIRMRPPRLPRPRPRPNRQPRP | 0.108
RRIRMRPPRLPRPRPRPNRTPRP | 0.13
RRIRMRPPRLPRPRPRPNTEPRP | -0.0533
RRIRMRPPRLPRPRPRPNTRPRP | 0.371
RRIRMRPPRLPRPRPRPNVRPRP | 0.0272
RRIRMRPPRLPRPRPRPNWDPRP | 0.0485
RRIRMRPPRLPRPRPRPNWIPRP | -0.118
RRIRMRPPRLPRPRPRPNWVPRP | -0.0816
RRIRMRPPRLPRPRPRPNYQPRP | -0.23
RRIRMRPPRLPRPRPRPNYTPRP | -0.434
RRIRMRPPRLPRPRPRPPDDPRP | 0.0932
RRIRMRPPRLPRPRPRPPDPPRP | 1.25
RRIRMRPPRLPRPRPRPPEFPRP | 1.05
RRIRMRPPRLPRPRPRPPFEPRP | 0.492
RRIRMRPPRLPRPRPRPPFWPRP | 1.2
RRIRMRPPRLPRPRPRPPGPPRP | 1.41
